Measurements reported in PMC8887629.

Biological target: full-length human LRRK2 (leucine-rich repeat kinase 2) (human) (UniProt Q5S007)
Test: cryo-EM structure

stoichiometry N: 2
Substance: full-length human LRRK2 (leucine-rich repeat kinase 2) (from UniProt Q5S007 1-2527) (enzyme)
